From publication PMC10570326

Target: OmpK36 (UniProt Q48473)
Assay: crystal structure; laser-shaped cylindrical crystal, S-SAD at a wavelength of 4.13 Å, resolution limited to 2.7 Å

Work on “OmpK36 (from UniProt Q48473 22-363) (natural protein)” yielded a stoichiometry N of 3.
